Assay results: patent US20100196390A1 (RINAT NEUROSCIENCE, published 2010)

Biological target: TrkB (Homo sapiens (Human), UniProt Q16620 32-430)
Test: koff of Fab at 25 C; T1/2=Log2/koff
Summary of the method: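 Monovalent Fab fragments were tested at 25° C by surface plasmon resonance on a Biacore instrument, against TrkB extracellular-domain monomer amine-coupled to the chip at low capacity. Fabs were injected low to high as a 3-fold serial dilution from 100 nM for 84 sec, with a 10 minute dissociation after the top sample. The dissociation half-life was calculated from koff, which was fitted to a Langmuir binding model in BIAevaluation. The formula used was T1/2 = Log 2/koff.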

Chain of TrkB (Q16620 32-430 limits assumed): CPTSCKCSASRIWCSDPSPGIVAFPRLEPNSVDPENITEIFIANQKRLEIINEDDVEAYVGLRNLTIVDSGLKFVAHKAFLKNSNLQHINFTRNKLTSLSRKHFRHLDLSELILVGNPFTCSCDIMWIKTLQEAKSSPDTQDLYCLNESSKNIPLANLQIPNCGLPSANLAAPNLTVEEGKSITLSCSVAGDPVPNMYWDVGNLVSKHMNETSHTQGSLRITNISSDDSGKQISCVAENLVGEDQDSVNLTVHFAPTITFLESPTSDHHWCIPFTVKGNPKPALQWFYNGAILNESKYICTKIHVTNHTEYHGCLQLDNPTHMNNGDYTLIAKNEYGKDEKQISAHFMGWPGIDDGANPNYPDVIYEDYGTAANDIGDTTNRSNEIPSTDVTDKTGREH

| Binder | T1/2 [min] |
| --- | --- |
| 10-C7 (Fab, V domains shown, Fab) VH: QVQLVQSGAEVKKPGASVKVSCKASGYTFTNYDIIWVRQAPGQGLEWMGHINPYNGRREYNEKFKGRVTMTRDTSTSTVYMELSSLRSEDTAVYYCARLLKYRRFRYYAIDYWGQGTTVTVSS VL: DIQMTQSPSSLSASVGDRVTITCRASESVYSNLAWYQQKPGKAPKLLIYAASNLQSGVPSRFSGSGSGTDFTFTISSLQPEDIATYYCQHFVYSPFTFGQGTKLEIK | 4.1 |
| 10-D11 (Fab, V domains shown, Fab) VH: QVQLVQSGAEVKKPGASVKVSCKASGYTFTNYDIIWVRQAPGQGLEWMGYINPYNGRREYNEKFKGRVTMTRDTSTSTVYMELSSLRSEDTAVYYCARLLKYRRFRYYAIDYWGQGTTVTVSS VL: DIQMTQSPSSLSASVGDRVTITCRASENVYRNLAWYQQKPGKAPKLLIYAASNLQSGVPSRFSGSGSGTDFTFTISSLQPEDIATYYCQHFWYSPFTFGQGTKLEIK | 4.2 |
| 12-A8 (Fab, V domains shown, Fab) VH: QVQLVQSGAEVKKPGASVKVSCKASGYTFTNYDIIWVRQAPGQGLEWMGYINPYNDGRKENEKFKGRVTMTRDTSTSTVYMELSSLRSEDTAVYYCARLLKYRRFRYYAIDYWGQGTTVTVSS VL: DIQMTQSPSSLSASVGDRVTITCRASENVYSNLAWYQQKPGKAPKLLIYAASNLQSGVPSRFSGSGSGTDFTFTISSLQPEDIATYYCQHFWGSPFTFGQGTKLEIK | 3.3 |
| 11-G10 (Fab, V domains shown, Fab) VH: QVQLVQSGAEVKKPGASVKVSCKASGYTFTNYDIIWVRQAPGQGLEWMGYINPYNGRREYNEKFKGRVTMTRDTSTSTVYMELSSLRSEDTAVYYCARLLKYRRFRYYAIDYWGQGTTVTVSS VL: DIQMTQSPSSLSASVGDRVTITCRASENVYSNLAWYQQKPGKAPKLLIYAASNLQSGVPSRFSGSGSGTDFTFTISSLQPEDIATYYCQHFWGSPFTFGQGTKLEIK | 3 |
| 11-B11 (Fab, V domains shown, Fab) VH: QVQLVQSGAEVKKPGASVKVSCKASGYTFTNYDIIWVRQAPGQGLEWMGYINPYNGRREYNEKFKGRVTMTRDTSTSTVYMELSSLRSEDTAVYYCARLLKYRRFRYYAIDYWGQGTTVTVSS VL: DIQMTQSPSSLSASVGDRVTITCRASEPVYSNLAWYQQKPGKAPKLLIYAASNLQSGVPSRFSGSGSGTDFTFTISSLQPEDIATYYCQHFWGSPFTFGQGTKLEIK | 5.5 |
| 10-G3 (Fab, V domains shown, Fab) VH: QVQLVQSGAEVKKPGASVKVSCKASGYTFTNYDIIWVRQAPGQGLEWMGYINPYNERTEYNEKFKGRVTMTRDTSTSTVYMELSSLRSEDTAVYYCARLLKYRRFRYYAIDYWGQGTTVTVSS VL: DIQMTQSPSSLSASVGDRVTITCRASENVYRNLAWYQQKPGKAPKLLIYIASNLQSGVPSRFSGSGSGTDFTFTISSLQPEDIATYYCQHFVYSPFTFGQGTKLEIK | 4.8 |
| 10-F10 (Fab, V domains shown, Fab) VH: QVQLVQSGAEVKKPGASVKVSCKASGYTFTNYDIIWVRQAPGQGLEWMGYINPYNDGRKENEKFKGRVTMTRDTSTSTVYMELSSLRSEDTAVYYCARLLKYRRFRYYAIDYWGQGTTVTVSS VL: DIQMTQSPSSLSASVGDRVTITCRASENVYLNLAWYQQKPGKAPKLLIYAASNLQSGVPSRFSGSGSGTDFTFTISSLQPEDIATYYCQHFWGSPFTFGQGTKLEIK | 4.1 |
| 11-D7 (Fab, V domains shown, Fab) VH: QVQLVQSGAEVKKPGASVKVSCKASGYTFTNYDIIWVRQAPGQGLEWMGYINPYNGRREYNEKFKGRVTMTRDTSTSTVYMELSSLRSEDTAVYYCARLLKYRRFRYYAIDYWGQGTTVTVSS VL: DIQMTQSPSSLSASVGDRVTITCRASENVYRNLAWYQQKPGKAPKLLIYAASNLQSGVPSRFSGSGSGTDFTFTISSLQPEDIATYYCQHFWGSPFTFGQGTKLEIK | 4.1 |
| 11-G2 (Fab, V domains shown, Fab) VH: QVQLVQSGAEVKKPGASVKVSCKASGYTFTNYDIIWVRQAPGQGLEWMGYINPYNDGRKENEKFKGRVTMTRDTSTSTVYMELSSLRSEDTAVYYCARLLKYRRFRYYAIDYWGQGTTVTVSS VL: DIQMTQSPSSLSASVGDRVTITCRASENVYSNLAWYQQKPGKAPKLLIYAASNLQSGVPSRFSGSGSGTDFTFTISSLQPEDIATYYCQHFWDSPFTFGQGTKLEIK | 1.5 |
| 10-G2 (Fab, V domains shown, Fab) VH: QVQLVQSGAEVKKPGASVKVSCKASGYTFTNYDIIWVRQAPGQGLEWMGYINPYNGRREYNEKFKGRVTMTRDTSTSTVYMELSSLRSEDTAVYYCARLLKYRRFRYYAIDYWGQGTTVTVSS VL: DIQMTQSPSSLSASVGDRVTITCRASEAVYSNLAWYQQKPGKAPKLLIYAASNLQSGVPSRFSGSGSGTDFTFTISSLQPEDIATYYCQHFWGSPFTFGQGTKLEIK | 5.2 |
| 11-C6 (Fab, V domains shown, Fab) VH: QVQLVQSGAEVKKPGASVKVSCKASGYTFTNYDIIWVRQAPGQGLEWMGYINPYNGRREYNEKFKGRVTMTRDTSTSTVYMELSSLRSEDTAVYYCARLLKYRRFRYYAIDYWGQGTTVTVSS VL: DIQMTQSPSSLSASVGDRVTITCRASSNVYSNLAWYQQKPGKAPKLLIYAASNLQSGVPSRFSGSGSGTDYTFTISSLQPEDIATYYCQHFWGSPFTFGQGTKLEIK | 10.8 |
| 12-B5 (Fab, V domains shown, Fab) VH: QVQLVQSGAEVKKPGASVKVSCKASGYTFTNYDIIWVRQAPGQGLEWMGYINPYNRRIEYNEKFKGRVTMTRDTSTSTVYMELSSLRSEDTAVYYCARLLKYRRFRYYAIDYWGQGTTVTVSS VL: DIQMTQSPSSLSASVGDRVTITCRASENVYSHLAWYQQKPGKAPKLLIYAASNLQSGVPSRFSGSGSGTDYTFTISSLQPEDIATYYCQHFWGSPFTFGQGTKLEIK | 10 |
| 10-F12 (Fab, V domains shown, Fab) VH: QVQLVQSGAEVKKPGASVKVSCKASGYTFTNYDIIWVRQAPGQGLEWMGYINPYNGRREYNEKFKGRVTMTRDTSTSTVYMELSSLRSEDTAVYYCARLLKYRRFRYYAIDYWGQGTTVTVSS VL: DIQMTQSPSSLSASVGDRVTITCRASENVYRNLAWYQQKPGKAPKLLIYAASNLQSGVPSRFSGSGSGTDFTFTISSLQPEDIATYYCQHFWGSPFTFGQGTKLEIK | 5.7 |
| 10-C10 (Fab, V domains shown, Fab) VH: QVQLVQSGAEVKKPGASVKVSCKASGYTFTNYDIIWVRQAPGQGLEWMGYINPYNGRREYNEKFKGRVTMTRDTSTSTVYMELSSLRSEDTAVYYCARLLKYRRFRYYAIDYWGQGTTVTVSS VL: DIQMTQSPSSLSASVGDRVTITCRASENVYRNLAWYQQKPGKAPKLLIYAASNLQSGVPSRFSGSGSGTDFTFTISSLQPEDIATYYCQHFVYSPFTFGQGTKLEIK | 4.3 |
| 11-F9 (Fab, V domains shown, Fab) VH: QVQLVQSGAEVKKPGASVKVSCKASGYTFTNYDIIWVRQAPGQGLEWMGYINPYNDGRKENEKFKGRVTMTRDTSTSTVYMELSSLRSEDTAVYYCARLLKYRRFRYYAIDYWGQGTTVTVSS VL: DIQMTQSPSSLSASVGDRVTITCRASENVYRNLAWYQQKPGKAPKLLIYAASNLQSGVPSRFSGSGSGTDFTFTISSLQPEDIATYYCQHFWYSPFTFGQGTKLEIK | 6.2 |
| 10-E10 (Fab, V domains shown, Fab) VH: QVQLVQSGAEVKKPGASVKVSCKASGYTFTNYDIIWVRQAPGQGLEWMGYINPYNDGRKENEKFKGRVTMTRDTSTSTVYMELSSLRSEDTAVYYCARLLKYRRFRYYAIDYWGQGTTVTVSS VL: DIQMTQSPSSLSASVGDRVTITCRASENVYSNLAWYQQKPGKAPKLLIYAASNLQSGVPSRFSGSGSGTDFTFTISSLQPEDIATYYCQHFWGSPFTFGQGTKLEIK | 2.7 |
| 11-G5 (Fab, V domains shown, Fab) VH: QVQLVQSGAEVKKPGASVKVSCKASGYTFTNYDIIWVRQAPGQGLEWMGYINPYNGRREYNEKFKGRVTMTRDTSTSTVYMELSSLRSEDTAVYYCARLLKYRRFRYYAIDYWGQGTTVTVSS VL: DIQMTQSPSSLSASVGDRVTITCRASENVYYNLAWYQQKPGKAPKLLIYAASNLQSGVPSRFSGSGSGTDFTFTISSLQPEDIATYYCQHFWYSPFTFGQGTKLEIK | 5.9 |
| 11-C7 (Fab, V domains shown, Fab) VH: QVQLVQSGAEVKKPGASVKVSCKASGYTFTNYDIIWVRQAPGQGLEWMGYINPYNRRIEYNEKFKGRVTMTRDTSTSTVYMELSSLRSEDTAVYYCARLLKYRRFRYYAIDYWGQGTTVTVSS VL: DIQMTQSPSSLSASVGDRVTITCRASENVYSHLAWYQQKPGKAPKLLIYAASNLQSGVPSRFSGSGSGTDFTFTISSLQPEDIATYYCQHFWGSPFTFGQGTKLEIK | 4.9 |
| 10-F7 (Fab, V domains shown, Fab) VH: QVQLVQSGAEVKKPGASVKVSCKASGYTFTNYDIIWVRQAPGQGLEWMGYINPYNGRREYNEKFKGRVTMTRDTSTSTVYMELSSLRSEDTAVYYCARLLKYRRFRYYAIDYWGQGTTVTVSS VL: DIQMTQSPSSLSASVGDRVTITCRASENVYSHLAWYQQKPGKAPKLLIYAASNLQSGVPSRFSGSGSGTDFTFTISSLQPEDIATYYCQHFVYSPFTFGQGTKLEIK | 4.9 |
| 11-D8 (Fab, V domains shown, Fab) VH: QVQLVQSGAEVKKPGASVKVSCKASGYTFTNYDIIWVRQAPGQGLEWMGYINPYNGRREYNEKFKGRVTMTRDTSTSTVYMELSSLRSEDTAVYYCARLLKYRRFRYYAIDYWGQGTTVTVSS VL: DIQMTQSPSSLSASVGDRVTITCRASTNVYSNLAWYQQKPGKAPKLLIYAASNLQSGVPSRFSGSGSGTDFTFTISSLQPEDIATYYCQHFWGSPFTFGQGTKLEIK | 2.5 |
| 11-B9 (Fab, V domains shown, Fab) VH: QVQLVQSGAEVKKPGASVKVSCKASGYTFTNYDIIWVRQAPGQGLEWMGYINPYNGRREYNEKFKGRVTMTRDTSTSTVYMELSSLRSEDTAVYYCARLLKYRRFRYYAIDYWGQGTTVTVSS VL: DIQMTQSPSSLSASVGDRVTITCRASTNVYRNLAWYQQKPGKAPKLLIYAASNLQSGVPSRFSGSGSGTDFTFTISSLQPEDIATYYCQHFWGSPFTFGQGTKLEIK | 4.9 |
